Columns and labels:
[1] = target: T1, Ac-P-Cit-G˜Hphe-LQ-Hynic (not fully specified)
T1 chain: PXGXLQ

[2] = target: T2, Ac-PLG˜LL-Ahxh-Ac[C14] (not fully specified)
T2 chain: PLGLL

[3] = target: T3, Ac-POG˜Hphe-Smc-T-Ahxh-Hynic
T3 chain: PXGXXT

[4] = target: T4, Ac-PL-NLys˜Hphe-RL-Ahxh-Ac[C14] (not fully specified)
T4 chain: PLXXRL

[5] = target: T5, Ac-P-Cit-G˜Hphe-Cit-L-Ahxh-Hynic (not fully specified)
T5 chain: PXGXXL

[6] = target: T6, Ac-PLG˜Hphe-YL-Hynic
T6 chain: PLGXYL

[7] = target: T7, Ac-PLG˜Hphe-OL-Ambh-Hynic
T7 chain: PLGXXL

[8] = target: T8, Ac-NLys-PLG˜Hphe-RLA-Ahxh-Hynic (not fully specified)
T8 chain: XPLGXRLA

[9] = target: T9, Ac-PLG˜Pabu-Cit-L-Ahxh-Ac[C14] (not fully specified)
T9 chain: PLGXXL

[10] = target: T10, Ac-PLG˜LL-Ahxh-Hynic
T10 chain: PLGLL

[11] = target: T11, Ac-P-Cit-G˜Aib-LA-Ahxh-Hynic (not fully specified)
T11 chain: PXGXLA

[12] = target: T12, Ac-PL-NLys˜Hphe-L-Ahxh-Ac[C14] (not fully specified)
T12 chain: PLXXL

[13] = target: T13, Ac-PRG˜LLT-Ahxh-Hynic
T13 chain: PRGLLT

[14] = target: T14, Ac-P-Cit-Cit-LTA-Ahxh-Hynic
T14 chain: PXXLTA

[15] = target: T15, Ac-PLG˜Cit-LA-Ahxh-Ac[C14] (not fully specified)
T15 chain: PLGXLA

[16] = target: T16, Ac-PL-DAla˜LL-Ahxh-Hynic (not fully specified)
T16 chain: PLALL

[17] = target: T17, Ac-PLG-LYV-Ahxh-Ac[C14]
T17 chain: PLGLYV

[18] = target: T18, Ac-P-Cit-G˜Hphe-OL-Ahxh-Ac[C14] (not fully specified)
T18 chain: PXGXXL

[19] = target: T19, Ac-PL-Sar˜LL-Ahxh-Ac[C14] (not fully specified)
T19 chain: PLXLL

[20] = target: T20, Ac-PLG˜Hphe-OLR-Ahxh-Hynic
T20 chain: PLGXXLR

[21] = target: T21, Piv-PLG˜LYT-Ahxh-Hynic
T21 chain: PLGLYT

[22] = target: T22, Ac-P-Cit-G˜S(OBn)-LA-Ahxh-Ac[C14] (not fully specified)
T22 chain: PXGSLA

[23] = target: T23, Ac-POG˜Hphe-LA-Ahxh-Hynic
T23 chain: PXGXLA

[24] = target: T24, NLys-NLys-PLG˜Hphe-YL-Ahxh-Hynic
T24 chain: XXPLGXYL

[25] = target: T25, Ac-PLG˜LYL-Ahxh-Hynic (not fully specified)
T25 chain: PLGLYL

[26] = target: T26, Ac-PLG˜LYS-Ahxh-Ac[C14] (not fully specified)
T26 chain: PLGLYS

[27] = target: T27, Ac-PLG˜Hphe-R-Ahxh-Ac[C14] (not fully specified)
T27 chain: PLGXR

[28] = target: T28, Ac-P-Cit-G˜Hphe-L-Ahxh-Hynic (not fully specified)
T28 chain: PXGXL

[29] = target: T29, Ac-PL-NLys˜Ahp-YL-Ahxh-Ac[C14] (not fully specified)
T29 chain: PLXXYL

[30] = target: T30, Ac-PLG˜Hphe-RLA-Ahxh-Hynic
T30 chain: PLGXRLA

[31] = target: T31, Ac-PLG˜LL-Ambh-Hynic
T31 chain: PLGLL

[32] = target: T32, Ac-PLG˜Ahp-YL-Ahxh-Ac[C14] (not fully specified)
T32 chain: PLGXYL

[33] = target: T33, Ac-PLG˜LLA-Ahxh-Hynic (not fully specified)
T33 chain: PLGLLA

[34] = target: T34, Ac-PLG˜Hphe-K(Me)2-L-Ahxh-Hynic (not fully specified)
T34 chain: PLGXKL

[35] = target: T35, Ac-PLG˜S(OBn)-LL-Ahxh-Hynic
T35 chain: PLGSLL

[36] = target: T36, Ac-PLG˜Hphe-RL-Ahxh-Hynic
T36 chain: PLGXRL

[37] = target: T37, Ac-PR-Cit˜LSA-Ahxh-Hynic
T37 chain: PRXLSA

[38] = target: T38, Ac-PLG˜LHL-Ahxh-Hynic
T38 chain: PLGLHL

[39] = target: T39, Ac-P-Cit-Abu˜LTA-Ahxh-Hynic (not fully specified)
T39 chain: PXXLTA

[40] = target: T40, Ac-POG˜Hphe-L-Hynic
T40 chain: PXGXL

[41] = target: T41, Ac-PLG˜LRA-Ahxh-Hynic (not fully specified)
T41 chain: PLGLRA

[42] = target: T42, Ac-PLG˜Hphe-YL-Ahxh-Hynic (not fully specified)
T42 chain: PLGXYL

[43] = target: T43, Ac-P-DLeu-G˜LL-Ahxh-Hynic (not fully specified)
T43 chain: PLGLL

[44] = target: T44, Ac-PRG˜Hphe-Dab-A-Ahxh-Hynic
T44 chain: PRGXXA

[45] = target: T45, Ac-PRR˜LTA-Ahxh-Hynic
T45 chain: PRRLTA

[46] = target: T46, Ac-Csa-PLG˜Hphe-YL-Ambh-Hynic (not fully specified)
T46 chain: XPLGXYL

[47] = target: T47, Ac-PL-NLys-LL-NHNH-Ac[C14]
T47 chain: PLXLL

[48] = target: T48, Ac-P-Cha-G˜Smc-HA-Ahxh-Hynic (not fully specified)
T48 chain: PXGXHA

[49] = target: T49, Ac-PRG˜Hphe-LA-Ahxh-Hynic
T49 chain: PRGXLA

[50] = target: T50, Ac-POG˜Hphe-L-Nle-Ahxh-Hynic
T50 chain: PXGXLX

[51] = target: T51, Ac-PRR˜Cha-TA-Ambh-Hynic
T51 chain: PRRXTA

[52] = target: T52, H-DArg-P-Cit-G˜cLeu-LA-Ahxh-Hynic (not fully specified)
T52 chain: RPXGXLA

B1: MMP-2 (protein)
chain: APSPIIKFPGDVAPKTDKELAVQYLNTFYGCPKESCNLFVLKDTLKKMQKFFGLPQTGDLDQNTIETMRKPRCGNPDVANYNFFPRKPKWDKNQITYRIIGYTPDLDPETVDDAFARAFQVWSDVTPLRFSRIHDGEADIMINFGRWEHGDGYPFDGKDGLLAHAFAPGTGVGGDSHFDDDELWTLGEGQVVRVKYGNADGEYCKFPFLFNGKEYNSCTDTGRSDGFLWCSTTYNFEKDGKYGFCPHEALFTMGGNAEGQPCKFPFRFQGTSYDSCTTEGRTDGYRWCGTTEDYDRDKKYGFCPETAMSTVGGNSEGAPCVFPFTFLGNKYESCTSAGRSDGKMWCATTANYDDDRKWGFCPDQGYSLFLVAAHEFGHAMGLEHSQDPGALMAPIYTYTKNFRLSQDDIKGIQELYGASPDIDLGTGPTPTLGPVTPEICKQDIVFDGIAQIRGEIFFFKDRFIWRTVTPRDKPMGPLLVATFWPELPEKIDAVYEAPQEEKAVFFAGNEYWIYSASTLERGYPKPLTSLGLPPDVQRVDAAFNWSKNKKTYIFAGDKFWRYNEVKKKMDPGFPKLIADAWNAIPDNLDAVVDLQGGGHSYFFKGAYYLKLENQSLKSVKFGSIKSDWLGC
Kcat/Km [1]: 171000 M⁻¹ s⁻¹
Kcat/Km [2]: 148000 M⁻¹ s⁻¹
Kcat/Km [3]: > 500000 M⁻¹ s⁻¹
Kcat/Km [4]: 102000 M⁻¹ s⁻¹
Kcat/Km [5]: 42600 M⁻¹ s⁻¹
Kcat/Km [6]: 63200 M⁻¹ s⁻¹
Kcat/Km [7]: 42700 M⁻¹ s⁻¹
Kcat/Km [8]: 461000 M⁻¹ s⁻¹
Kcat/Km [9]: 0 M⁻¹ s⁻¹
Kcat/Km [10]: > 250000 M⁻¹ s⁻¹
Kcat/Km [11]: 0 M⁻¹ s⁻¹
Kcat/Km [12]: 465000 M⁻¹ s⁻¹
Kcat/Km [13]: 98600 M⁻¹ s⁻¹
Kcat/Km [14]: 27300 M⁻¹ s⁻¹
Kcat/Km [15]: 16300 M⁻¹ s⁻¹
Kcat/Km [16]: 0 M⁻¹ s⁻¹
Kcat/Km [17]: 396000 M⁻¹ s⁻¹
Kcat/Km [18]: 42500 M⁻¹ s⁻¹
Kcat/Km [19]: 111000 M⁻¹ s⁻¹
Kcat/Km [20]: 46600 M⁻¹ s⁻¹
Kcat/Km [21]: 569000 M⁻¹ s⁻¹
Kcat/Km [22]: > 500000 M⁻¹ s⁻¹
Kcat/Km [23]: > 500000 M⁻¹ s⁻¹
Kcat/Km [24]: 26300 M⁻¹ s⁻¹
Kcat/Km [25]: 65300 M⁻¹ s⁻¹
Kcat/Km [26]: > 500000 M⁻¹ s⁻¹
Kcat/Km [27]: > 500000 M⁻¹ s⁻¹
Kcat/Km [28]: 161000 M⁻¹ s⁻¹
Kcat/Km [29]: 0 M⁻¹ s⁻¹
Kcat/Km [30]: 64000 M⁻¹ s⁻¹
Kcat/Km [31]: 33600 M⁻¹ s⁻¹
Kcat/Km [32]: 38700 M⁻¹ s⁻¹
Kcat/Km [33]: 387000 M⁻¹ s⁻¹
Kcat/Km [34]: 72000 M⁻¹ s⁻¹
Kcat/Km [35]: 180000 M⁻¹ s⁻¹
Kcat/Km [36]: 242000 M⁻¹ s⁻¹
Kcat/Km [37]: 14700 M⁻¹ s⁻¹
Kcat/Km [38]: 73700 M⁻¹ s⁻¹
Kcat/Km [39]: 55400 M⁻¹ s⁻¹
Kcat/Km [40]: 63700 M⁻¹ s⁻¹
Kcat/Km [41]: > 500000 M⁻¹ s⁻¹
Kcat/Km [42]: > 100000 M⁻¹ s⁻¹
Kcat/Km [43]: 5010 M⁻¹ s⁻¹
Kcat/Km [44]: 591000 M⁻¹ s⁻¹
Kcat/Km [45]: 10100 M⁻¹ s⁻¹
Kcat/Km [46]: 19500 M⁻¹ s⁻¹
Kcat/Km [47]: 134000 M⁻¹ s⁻¹
Kcat/Km [48]: 146000 M⁻¹ s⁻¹
Kcat/Km [49]: > 500000 M⁻¹ s⁻¹
Kcat/Km [50]: 401000 M⁻¹ s⁻¹
Kcat/Km [51]: 0 M⁻¹ s⁻¹
Kcat/Km [52]: 77 M⁻¹ s⁻¹
